Results taken from FireProtDB (doi:10.1110/ps.03176803).

B1: Guanyl-specific ribonuclease Sa, P05798 (parent)
chain: DVSGTVCLSALPPEATDTLNLIASDGPFPYSQDGVVFQNRESVLPTQSYGYYHEYTVITPGARTRGTRRIITGEATQEDYYTGDHYATFSLIDQTC

Variants of: B1
Conditions: Kitasatospora aureofaciens, Thermal, DSC, reversible: yes (90-95%), structure 1RGG, whole UniProt chain shown
[1] = pH 5.5, 55.6 °C, sodium acetate potassium chloride 0.01 M 0.05 M
[2] = pH 5.5, sodium acetate potassium chloride 0.01 M 0.05 M

| Variant | ddG of mutation (higher = less stable) [1] [kcal/mol] | ddG of mutation (higher = less stable) (pH 7, 49 °C, PIPES 0.03 M) [kcal/mol] | Tm (pH 7, PIPES 0.03 M) [°C] | change of melting temperature, mutant - wild type (higher = more stable) (pH 7, PIPES 0.03 M) [°C] | unfolding enthalpy (calorimetric) (pH 7, PIPES 0.03 M) [kcal/mol] | unfolding enthalpy (van 't Hoff) (pH 7, PIPES 0.03 M) [kcal/mol] | Tm [2] [°C] | change of melting temperature, mutant - wild type (higher = more stable) [2] [°C] | unfolding enthalpy (calorimetric) [2] [kcal/mol] | unfolding enthalpy (van 't Hoff) [2] [kcal/mol] | Tm (pH 7, PIPES 0.3 M) [°C] | change of melting temperature, mutant - wild type (higher = more stable) (pH 7, PIPES 0.3 M) [°C] | unfolding enthalpy (calorimetric) (pH 7, PIPES 0.3 M) [kcal/mol] | unfolding enthalpy (van 't Hoff) (pH 7, PIPES 0.3 M) [kcal/mol] |
| --- | --- | --- | --- | --- | --- | --- | --- | --- | --- | --- | --- | --- | --- | --- |
| E54Q | 2.3 | 1.7 | 43.1 | -5.9 | 81 | 87 | – | – | – | – | – | – | – | – |
| E74K | -0.1 | -0.9 | – | – | – | – | 56 | 0.4 | 103 | 99 | 52.1 | 3.1 | 101 | 113 |
| E41K | 1.5 | 0.7 | 46.5 | -2.5 | 90 | 100 | 50.5 | -5.1 | 97 | 101 | – | – | – | – |
| R65A | 1.3 | 1 | 45.6 | -3.4 | 81 | 90 | 51.1 | -4.5 | 81 | 78 | – | – | – | – |
| H85Q | 0 | 0 | 49.1 | 0.1 | 90 | 89 | 55.5 | -0.1 | 94 | 105 | – | – | – | – |
| Q38A | -0.4 | -1 | 52.5 | 3.5 | 109 | 110 | – | – | – | – | – | – | – | – |
